The target in this experiment is mlp3a_human MAP1LC3A (UniProt Q9H492).
Turning to “Toll-interacting protein (Homo sapiens) (from UniProt Q9H0E2) W133A;T134A;H135A;I136A”, the “effect of a mutation on the interaction” value is on record as “decreasing interaction strength”.
In the case of “Toll-interacting protein (Homo sapiens) (from UniProt Q9H0E2) W133A;T134A;H135A;I136A;W151A;Y152A;S153A;L154A” it was “disrupting interaction strength”; in that of “Toll-interacting protein (Homo sapiens) (from UniProt Q9H0E2) W151A;Y152A;S153A;L154A”, “decreasing interaction strength”.

(Values after IntAct's records for PubMed 25042851.)
